In patent US7662633B2, “Method of screening for inhibitors of osteopontin” (GlaxoSmithKline LLC, priority 2000, dated 2010):
Ends that are not written are not given here.

Key:
Format in all cases: cell-based
α4β7 = biological target: T1, α4β7 (Homo sapiens, UniProt P13612+P26010); assay: α4β7 adhesion assay: RPMI8866 cell adhesion to zz-MAdCAM; conditions: for Relative potency compared to parent peptide SVVYGLR against α4β7 (RPMI8866 adhesion to zz-MAdCAM): SVVYGLR peptide with the residue mutated to alanine; for Inhibition of RPMI8866 cell adhesion to zz-MAdCAM by synthetic peptide: varying peptide concentrations, 20 min 37° C.
T1 construct: RPMI8866 cells which express α4β7, and small amounts of α4β1 and α5β1 were used; endogenous in cells; host or cells: RPMI8866 cells
T1 sequence (P13612 34-1032): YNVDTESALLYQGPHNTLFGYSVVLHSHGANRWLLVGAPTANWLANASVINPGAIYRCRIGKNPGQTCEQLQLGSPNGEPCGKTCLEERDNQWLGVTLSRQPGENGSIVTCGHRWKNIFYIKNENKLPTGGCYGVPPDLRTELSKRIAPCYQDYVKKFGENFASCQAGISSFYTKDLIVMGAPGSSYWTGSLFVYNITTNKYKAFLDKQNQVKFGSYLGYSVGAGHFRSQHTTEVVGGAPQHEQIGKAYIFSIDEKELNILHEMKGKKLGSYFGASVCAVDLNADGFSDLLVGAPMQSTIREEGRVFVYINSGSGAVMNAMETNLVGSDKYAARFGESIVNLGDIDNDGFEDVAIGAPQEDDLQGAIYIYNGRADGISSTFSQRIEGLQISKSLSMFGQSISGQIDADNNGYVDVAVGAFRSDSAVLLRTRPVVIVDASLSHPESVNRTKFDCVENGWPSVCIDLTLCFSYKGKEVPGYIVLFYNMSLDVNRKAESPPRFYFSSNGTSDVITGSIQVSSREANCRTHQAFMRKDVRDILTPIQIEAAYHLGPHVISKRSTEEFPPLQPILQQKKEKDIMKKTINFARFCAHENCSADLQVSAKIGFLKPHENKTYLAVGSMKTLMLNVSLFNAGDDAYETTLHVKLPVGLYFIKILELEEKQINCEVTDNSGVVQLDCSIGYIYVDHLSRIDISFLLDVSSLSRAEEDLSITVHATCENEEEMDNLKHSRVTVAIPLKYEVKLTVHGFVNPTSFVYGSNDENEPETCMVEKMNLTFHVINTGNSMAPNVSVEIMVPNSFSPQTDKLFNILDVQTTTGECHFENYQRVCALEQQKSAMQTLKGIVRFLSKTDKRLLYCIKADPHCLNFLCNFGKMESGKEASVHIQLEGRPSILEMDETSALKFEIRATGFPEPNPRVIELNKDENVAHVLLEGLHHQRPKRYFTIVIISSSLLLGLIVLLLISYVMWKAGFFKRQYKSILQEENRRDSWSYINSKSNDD
T1 sequence (P26010 20-798): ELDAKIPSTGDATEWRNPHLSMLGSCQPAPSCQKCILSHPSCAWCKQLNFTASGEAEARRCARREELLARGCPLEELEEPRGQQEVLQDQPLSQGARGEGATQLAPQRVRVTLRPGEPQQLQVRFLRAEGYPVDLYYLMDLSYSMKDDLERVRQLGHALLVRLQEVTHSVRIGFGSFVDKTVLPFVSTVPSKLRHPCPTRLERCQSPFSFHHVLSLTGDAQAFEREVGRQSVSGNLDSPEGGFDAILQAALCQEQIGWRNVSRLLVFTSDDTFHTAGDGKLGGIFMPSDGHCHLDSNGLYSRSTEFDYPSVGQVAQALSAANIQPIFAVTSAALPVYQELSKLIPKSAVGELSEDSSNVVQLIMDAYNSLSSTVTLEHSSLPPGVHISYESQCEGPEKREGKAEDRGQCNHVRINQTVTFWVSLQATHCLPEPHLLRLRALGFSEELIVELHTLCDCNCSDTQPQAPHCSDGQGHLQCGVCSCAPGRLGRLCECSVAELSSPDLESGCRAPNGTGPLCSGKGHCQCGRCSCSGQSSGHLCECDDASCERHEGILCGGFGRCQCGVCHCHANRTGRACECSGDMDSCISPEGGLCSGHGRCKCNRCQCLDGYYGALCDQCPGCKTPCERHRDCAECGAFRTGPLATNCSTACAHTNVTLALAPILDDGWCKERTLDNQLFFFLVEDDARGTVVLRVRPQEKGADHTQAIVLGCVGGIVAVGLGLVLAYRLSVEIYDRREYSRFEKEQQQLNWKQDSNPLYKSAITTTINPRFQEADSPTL
Method: The recombinant zz-MAdCAM was absorbed onto Maxisorp plate pre-coated for 2.5 hours at 37° C. with 100 μL of human IgG, and then washed twice with PBS. For capture the recombinant zz-MAdCAM was diluted to the appropriate concentration in 3% BSA/PBS, 100 μl added to each well, and incubated overnight at 4° C. Prior to use plates were washed twice in PBS.
For the α4β7 adhesion assay RPMI8866 cells were washed in cation free HBSS supplemented with 1 mM EDTA, pelleted and labelled by incubating with BCECF (Molecular Probes) in cation-free HBSS at 37° C. for 10 minutes. At this stage cells were also co-incubated with […] human IgG to block endogenous Fc receptors. Cells were then washed once more in cation-free HBSS and then used in the adhesion assay at a final concentration of 3×10^6 cells ml^−1 in the presence of the appropriate treatment as indicated. To prevent cells clumping the assay plate was finally centrifuged at 400 rpm for 3 minutes without the brake. Cells were then incubated for 20 minutes at 37° C. and then washed twice in PBS before reading directly in a plate reader. For antibody inhibition studies the cells were preincubated with the appropriate antibody at […] for 5 minutes at room temperature prior to being placed in the incubator.

α4β1 [1] = biological target: T2, α4β1 (Homo sapiens, UniProt P05556+P13612); assay: J6 cell adhesion to GST-CS-1 (CS-1 fragment of fibronectin); conditions: for Relative potency compared to parent peptide SVVYGLR against α4β1 (J6 adhesion to GST-CS-1): SVVYGLR peptide with the residue mutated to alanine; for Inhibition of J6 cell adhesion to GST-CS-1 by synthetic peptide (α4β1-CS-1 interaction): varying peptide concentrations, 35 min 37° C.
T2 construct: Of the integrins analysed J6 express only α5β1 and α4βwhile HL60 express α4β1 and α5β1 and αLβ2; endogenous in cells; host or cells: J6 cells
Method: (§1) All proteins were coated onto MAXISORP plates (Nunc) overnight at 4° C. Each protein was diluted in PBS at the concentrations indicated, and a total volume of 100 μl added per well. Plates were washed twice in PBS then blocked with 3% BSA/PBS for 1 hr at 37° C., and finally washed twice in PBS. Routinely HL60 cells were pelleted and washed once in HBSS (Sigma) then spread in 25 mM Hepes 7.5, HBSS at 2×10^6 ml^−1 (100 μl per well) in the presence of 0.2 mM MnCl2 and 50 ng/ml TPA, with other additions as indicated. J6 cells were likewise pelleted and washed once in HBSS (Sigma) then spread in 25 mM Hepes (pH7.5), HBSS at 2×10^6ml^−1 (100 μl per well) in the presence of 0.2 mM MnCl2 and other additions as indicated. For antibody inhibition cells were preincubated with the antibody (10 μg/ml) on ice for 10 minutes. Cells were then allowed to attach for 35 minutes at 37° C., washed twice in PBS, once in ethanol, and fixed in ethanol for 20 minutes at room temperature. For quantitation cells were visualised by staining with 0.1% crystal violet (Sigma) for 10 minutes then lysed in 0.5% TRITON X-100 (Sigma) and read at 570 nm in a Wallac Victor plate reader.

α4β1 [2] = assay: as above; conditions: J6/CS-1 versus RPMI8866/zz-MAdCAM
Method: as §1

α4β1 [3] = biological target: T2, α4β1; assay: J6 cell adhesion to GST fusion proteins of osteopontin (OPN); conditions: 0.2 mM MnCl2, 35 min 37° C.
Method: as §1

T2 sequence (P05556 21-798, one chain of several): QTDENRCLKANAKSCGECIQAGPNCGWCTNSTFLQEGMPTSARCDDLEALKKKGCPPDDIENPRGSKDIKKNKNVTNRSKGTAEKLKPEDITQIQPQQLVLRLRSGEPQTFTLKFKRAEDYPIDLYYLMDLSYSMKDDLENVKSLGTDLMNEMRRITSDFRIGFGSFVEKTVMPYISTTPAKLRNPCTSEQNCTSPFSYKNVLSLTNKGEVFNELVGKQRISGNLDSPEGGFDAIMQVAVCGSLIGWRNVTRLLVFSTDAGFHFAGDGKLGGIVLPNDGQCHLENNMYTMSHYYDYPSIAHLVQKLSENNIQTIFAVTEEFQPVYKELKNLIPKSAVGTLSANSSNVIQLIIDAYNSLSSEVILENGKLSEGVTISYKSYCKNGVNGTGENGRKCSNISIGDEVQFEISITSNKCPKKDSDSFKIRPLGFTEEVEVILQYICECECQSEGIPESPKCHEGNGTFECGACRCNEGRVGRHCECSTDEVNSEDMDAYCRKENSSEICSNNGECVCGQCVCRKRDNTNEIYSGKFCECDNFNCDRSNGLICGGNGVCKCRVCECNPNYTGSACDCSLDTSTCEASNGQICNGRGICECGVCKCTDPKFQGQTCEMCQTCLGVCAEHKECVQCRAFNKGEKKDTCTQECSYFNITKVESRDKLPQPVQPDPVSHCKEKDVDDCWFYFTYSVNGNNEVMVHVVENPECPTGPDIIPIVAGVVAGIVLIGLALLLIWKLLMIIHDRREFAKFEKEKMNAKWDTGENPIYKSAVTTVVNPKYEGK

Tyr165: SVVYGLR synthetic peptide in which Tyr165 is mutated to alanine (SVVAGLR; SVVYGLR peptide; UniProt P10451 162-168, looked up, variant Y165A)
Relative potency compared to parent peptide SVVYGLR against α4β7 (RPMI8866 adhesion to zz-MAdCAM) (α4β7): reduced the potency
Relative potency compared to parent peptide SVVYGLR against α4β1 (J6 adhesion to GST-CS-1) (α4β1 [1]): reduced the potency

Val164: SVVYGLR synthetic peptide in which Val164 is mutated to alanine (SVAYGLR; SVVYGLR peptide; UniProt P10451 162-168, looked up, variant V164A)
Relative potency compared to parent peptide SVVYGLR against α4β7 (RPMI8866 adhesion to zz-MAdCAM) (α4β7): minor contribution to binding
Relative potency compared to parent peptide SVVYGLR against α4β1 (J6 adhesion to GST-CS-1) (α4β1 [1]): minor contribution to binding

Val163: SVVYGLR synthetic peptide in which Val163 is mutated to alanine (SAVYGLR; SVVYGLR peptide; UniProt P10451 162-168, looked up, variant V163A)
Relative potency compared to parent peptide SVVYGLR against α4β7 (RPMI8866 adhesion to zz-MAdCAM) (α4β7): reduced the potency
Relative potency compared to parent peptide SVVYGLR against α4β1 (J6 adhesion to GST-CS-1) (α4β1 [1]): reduced the potency

Gly166: SVVYGLR synthetic peptide in which Gly166 is mutated to alanine (SVVYALR; SVVYGLR peptide; UniProt P10451 162-168, looked up, variant G166A)
Selectivity between α4β1 and α4β7 on mutating the residue (α4β1 [2]): introduces a degree of selectivity

aa153-168: GST fusion protein of OPN aa153-168, Gly of RGD mutated to Ala (VDTYDGRADSVVYGLR; also: GST fusion protein)
Ability of coated GST-OPN fusion protein to support J6 cell adhesion (α4β1 [3]): supported J6 cell adhesion

Arg168: SVVYGLR synthetic peptide in which Arg168 is mutated to alanine (SVVYGLA; SVVYGLR peptide; UniProt P10451 162-168, looked up, variant R168A)
Relative potency compared to parent peptide SVVYGLR against α4β7 (RPMI8866 adhesion to zz-MAdCAM) (α4β7): less potent
Selectivity between α4β1 and α4β7 on mutating the residue (α4β1 [2]): introduces a degree of selectivity
Relative potency compared to parent peptide SVVYGLR against α4β1 (J6 adhesion to GST-CS-1) (α4β1 [1]): more potent

aa17-168: GST fusion protein representing the thrombin cleaved fragment of OPN
Ability of coated GST-OPN fusion protein to support J6 cell adhesion (α4β1 [3]): adhered

SVVYGLR (VARIANT 2 The carboxy terminal end can be, for example COO-, COOH, or CONH2, see specification, for example Figures 10, 11, and 13; listed as Homo sapiens) [synthetic peptide of OPN aa162-168]
Inhibition of RPMI8866 cell adhesion to zz-MAdCAM by synthetic peptide (α4β7): inhibited adhesion
Potency at blocking J6 adhesion to CS-1 compared with the CS-1 peptide itself (α4β1 [1]): only slightly less potent
Inhibition of J6 cell adhesion to GST-CS-1 by synthetic peptide (α4β1-CS-1 interaction) (α4β1 [1]): blocked adhesion to CS-1

FPTDLPA (listed as Homo sapiens) [synthetic peptide of OPN aa136-142]
Inhibition of J6 cell binding to CS-1 over the scrambled control at lower matrix concentrations (α4β1 [1]; lower matrix concentrations, data not shown): weak inhibition
Inhibition of J6 cell adhesion to GST-CS-1 by synthetic peptide (α4β1-CS-1 interaction) (α4β1 [1]): unable to inhibit binding to CS-1

aa17-168RAD: GST fusion of thrombin cleaved OPN fragment with RGD motif mutated to RAD
Ability of coated GST-OPN fusion protein to support J6 cell adhesion (α4β1 [3]): did not affect binding

Leu167: SVVYGLR synthetic peptide in which Leu167 is mutated to alanine (SVVYGAR; SVVYGLR peptide; UniProt P10451 162-168, looked up, variant L167A)
Relative potency compared to parent peptide SVVYGLR against α4β7 (RPMI8866 adhesion to zz-MAdCAM) (α4β7): relative potency similar to that observed with the blocked peptide
Relative potency compared to parent peptide SVVYGLR against α4β1 (J6 adhesion to GST-CS-1) (α4β1 [1]): relative potency similar to that observed with the blocked peptide

aa17-314: GST fusion protein representing full length human OPN
Ability of coated GST-OPN fusion protein to support J6 cell adhesion (α4β1 [3]): adhered

aa125-168: GST fusion, N-terminal deletion of the thrombin cleaved OPN fragment
Ability of coated GST-OPN fusion protein to support J6 cell adhesion (α4β1 [3]): bound

aa115-168: GST fusion, N-terminal deletion of the thrombin cleaved OPN fragment
Ability of coated GST-OPN fusion protein to support J6 cell adhesion (α4β1 [3]): bound

GRVLYSV (Synthesized and/or Homo sapiens) [scrambled control peptide of SVVYGLR, reference compound]
Inhibition of RPMI8866 cell adhesion to zz-MAdCAM by synthetic peptide (α4β7): no effect

SVVYGLR-CONH2 (SVVYGLR-NH2; listed as Homo sapiens) [SVVYGLR (SEQ ID NO: 4)-CONH2, capped peptide lacking the acidic carboxy terminus]
Inhibition of RPMI8866 cell adhesion to zz-MAdCAM by synthetic peptide (α4β7): abrogated the ability
Inhibition of J6 cell adhesion to GST-CS-1 by synthetic peptide (α4β1-CS-1 interaction) (α4β1 [1]): abrogated the ability

aa132-146: GST fusion protein of OPN aa132-146 (LVTDFPTDLPATEVF; also: GST fusion protein; UniProt P10451 132-146, looked up, fragment)
Ability of coated GST-OPN fusion protein to support J6 cell adhesion (α4β1 [3]): supported J6 cell adhesion
